Experimental data: patent US20190233519A1 (NANJING LEGEND BIOTECH, published 2019)

B1: BCP-73 (A34311VH11-mutated hIgG1 hinge-Keytruda) (bispecific antibody)
heavy: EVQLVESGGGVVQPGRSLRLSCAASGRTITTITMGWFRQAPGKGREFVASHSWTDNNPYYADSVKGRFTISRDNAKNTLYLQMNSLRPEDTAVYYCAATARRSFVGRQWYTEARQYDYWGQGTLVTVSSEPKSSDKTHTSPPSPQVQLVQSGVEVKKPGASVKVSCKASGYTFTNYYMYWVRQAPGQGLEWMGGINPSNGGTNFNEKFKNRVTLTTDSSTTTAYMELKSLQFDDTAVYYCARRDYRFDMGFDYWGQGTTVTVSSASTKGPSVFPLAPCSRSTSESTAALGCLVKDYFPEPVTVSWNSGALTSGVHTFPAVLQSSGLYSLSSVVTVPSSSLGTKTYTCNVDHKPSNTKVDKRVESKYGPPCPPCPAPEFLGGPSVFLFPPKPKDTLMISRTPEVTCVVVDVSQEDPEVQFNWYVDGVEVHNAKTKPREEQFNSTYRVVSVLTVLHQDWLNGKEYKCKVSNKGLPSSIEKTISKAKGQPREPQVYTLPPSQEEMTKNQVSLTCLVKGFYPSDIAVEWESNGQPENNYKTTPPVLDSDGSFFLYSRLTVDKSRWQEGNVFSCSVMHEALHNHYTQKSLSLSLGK
light: EIVLTQSPATLSLSPGERATLSCRASKGVSTSGYSYLHWYQQKPGQAPRLLIYLASYLESGVPARFSGSGSGTDFTLTISSLEPEDFAVYYCQHSRDLPLTFGGGTKVEIKRTVAAPSVFIFPPSDEQLKSGTASVVCLLNNFYPREAKVQWKVDNALQSGNSQESVTEQDSKDSTYSLSSTLTLSKADYEKHKVYACEVTHQGLSSPVTKSFNRGEC
B2: BCP-74 (AS07014VH11-mutated hIgG1 hinge-Keytruda) (bispecific antibody)
heavy: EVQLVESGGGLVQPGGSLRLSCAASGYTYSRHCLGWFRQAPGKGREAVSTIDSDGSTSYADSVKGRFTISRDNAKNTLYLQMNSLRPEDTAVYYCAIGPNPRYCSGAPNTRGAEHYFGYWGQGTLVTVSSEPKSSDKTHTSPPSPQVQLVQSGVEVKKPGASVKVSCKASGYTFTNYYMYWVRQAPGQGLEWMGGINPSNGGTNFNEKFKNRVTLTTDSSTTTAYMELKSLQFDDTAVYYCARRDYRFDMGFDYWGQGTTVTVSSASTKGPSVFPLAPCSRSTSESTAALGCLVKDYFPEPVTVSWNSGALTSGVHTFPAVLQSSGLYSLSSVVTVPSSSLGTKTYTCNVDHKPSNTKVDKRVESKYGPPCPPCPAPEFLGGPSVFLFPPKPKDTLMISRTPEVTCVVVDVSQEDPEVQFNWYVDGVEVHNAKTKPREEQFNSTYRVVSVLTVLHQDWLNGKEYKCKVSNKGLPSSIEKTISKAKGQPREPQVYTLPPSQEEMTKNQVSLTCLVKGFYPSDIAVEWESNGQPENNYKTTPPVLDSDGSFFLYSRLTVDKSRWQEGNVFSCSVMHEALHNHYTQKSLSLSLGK
light: B1 light
B3: BCP-75 (AS07189TKDVH11-mutated hIgG1 hinge-Keytruda) (bispecific antibody)
heavy: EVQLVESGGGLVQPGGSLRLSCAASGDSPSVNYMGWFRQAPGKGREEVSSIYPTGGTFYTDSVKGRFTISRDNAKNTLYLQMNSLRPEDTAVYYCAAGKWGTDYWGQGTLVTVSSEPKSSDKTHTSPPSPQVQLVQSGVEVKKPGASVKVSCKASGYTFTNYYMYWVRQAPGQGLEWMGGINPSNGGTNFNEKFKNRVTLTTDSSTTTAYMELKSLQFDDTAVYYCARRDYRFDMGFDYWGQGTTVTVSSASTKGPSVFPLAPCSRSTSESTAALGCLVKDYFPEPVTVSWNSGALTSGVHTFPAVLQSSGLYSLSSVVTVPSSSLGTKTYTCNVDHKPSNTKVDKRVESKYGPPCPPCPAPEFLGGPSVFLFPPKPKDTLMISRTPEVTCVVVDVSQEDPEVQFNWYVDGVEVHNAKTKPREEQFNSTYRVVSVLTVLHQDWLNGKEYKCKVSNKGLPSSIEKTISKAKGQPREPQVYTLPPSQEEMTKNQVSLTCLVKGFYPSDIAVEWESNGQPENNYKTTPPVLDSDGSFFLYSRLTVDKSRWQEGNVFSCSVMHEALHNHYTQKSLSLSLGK
light: B1 light
B4: BCP-35 (Keytruda-Fab VH-CH1-hIgG1 hinge-A34311-CH1-IgG4 Fc, Keytruda-Fab VL-CL-hIgG1 hinge-A34311-CL) (bispecific antibody)
heavy: not shown
light: EIVLTQSPATLSLSPGERATLSCRASKGVSTSGYSYLHWYQQKPGQAPRLLIYLASYLESGVPARFSGSGSGTDFTLTISSLEPEDFAVYYCQHSRDLPLTFGGGTKVEIKRTVAAPSVFIFPPSDEQLKSGTASVVCLLNNFYPREAKVQWKVDNALQSGNSQESVTEQDSKDSTYSLSSTLTLSKADYEKHKVYACEVTHQGLSSPVTKSFNRGECEPKSCDKTHTCPPCPQVKLEESGGGLVLPGESLRLSCEASGRTITTITMGWFRQAPGKERQFVASHSWTDNNPYYADSVKGRFIISRDNAGNRVYLQMHSLEPEDTAVYYCAATARRSFVGRQWYTEARQYDYWGQGTQVTVSSRTVAAPSVFIFPPSDEQLKSGTASVVCLLNNFYPREAKVQWKVDNALQSGNSQESVTEQDSKDSTYSLSSTLTLSKADYEKHKVYACEVTHQGLSSPVTKSFNRGEC
B5: BCP-16 (A34311-hIgG1 hinge-Keytruda) (bispecific antibody)
heavy: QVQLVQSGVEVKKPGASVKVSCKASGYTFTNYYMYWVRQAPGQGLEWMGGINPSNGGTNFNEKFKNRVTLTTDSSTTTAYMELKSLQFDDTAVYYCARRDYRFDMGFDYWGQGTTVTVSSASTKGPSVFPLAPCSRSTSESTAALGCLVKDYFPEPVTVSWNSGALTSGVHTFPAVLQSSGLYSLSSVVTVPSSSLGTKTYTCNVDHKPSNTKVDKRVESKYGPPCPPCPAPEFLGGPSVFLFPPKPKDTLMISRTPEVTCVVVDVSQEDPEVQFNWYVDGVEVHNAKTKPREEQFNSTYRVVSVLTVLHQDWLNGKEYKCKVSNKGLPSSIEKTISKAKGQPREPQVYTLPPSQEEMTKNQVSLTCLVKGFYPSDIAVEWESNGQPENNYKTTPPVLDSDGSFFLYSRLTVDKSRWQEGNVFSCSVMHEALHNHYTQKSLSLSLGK
light: QVKLEESGGGLVLPGESLRLSCEASGRTITTITMGWFRQAPGKERQFVASHSWTDNNPYYADSVKGRFIISRDNAGNRVYLQMHSLEPEDTAVYYCAATARRSFVGRQWYTEARQYDYWGQGTQVTVSSEPKSCDKTHTCPPCPEIVLTQSPATLSLSPGERATLSCRASKGVSTSGYSYLHWYQQKPGQAPRLLIYLASYLESGVPARFSGSGSGTDFTLTISSLEPEDFAVYYCQHSRDLPLTFGGGTKVEIKRTVAAPSVFIFPPSDEQLKSGTASVVCLLNNFYPREAKVQWKVDNALQSGNSQESVTEQDSKDSTYSLSSTLTLSKADYEKHKVYACEVTHQGLSSPVTKSFNRGEC
B6: BCP-17 (Keytruda-hIgG1 hinge-A34311) (bispecific antibody)
heavy: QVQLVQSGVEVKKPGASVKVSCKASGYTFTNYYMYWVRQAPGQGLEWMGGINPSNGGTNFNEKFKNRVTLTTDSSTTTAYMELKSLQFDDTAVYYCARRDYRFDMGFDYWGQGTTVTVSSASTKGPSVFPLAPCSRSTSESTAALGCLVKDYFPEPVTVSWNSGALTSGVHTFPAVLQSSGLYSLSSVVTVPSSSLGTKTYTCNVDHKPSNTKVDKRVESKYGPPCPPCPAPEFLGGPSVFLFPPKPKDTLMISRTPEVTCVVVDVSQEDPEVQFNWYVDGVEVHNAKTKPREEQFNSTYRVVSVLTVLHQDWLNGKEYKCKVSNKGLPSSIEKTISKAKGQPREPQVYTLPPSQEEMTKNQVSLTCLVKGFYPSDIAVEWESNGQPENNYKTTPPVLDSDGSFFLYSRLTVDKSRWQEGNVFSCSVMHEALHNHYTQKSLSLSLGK
light: EIVLTQSPATLSLSPGERATLSCRASKGVSTSGYSYLHWYQQKPGQAPRLLIYLASYLESGVPARFSGSGSGTDFTLTISSLEPEDFAVYYCQHSRDLPLTFGGGTKVEIKRTVAAPSVFIFPPSDEQLKSGTASVVCLLNNFYPREAKVQWKVDNALQSGNSQESVTEQDSKDSTYSLSSTLTLSKADYEKHKVYACEVTHQGLSSPVTKSFNRGECEPKSCDKTHTCPPCPQVKLEESGGGLVLPGESLRLSCEASGRTITTITMGWFRQAPGKERQFVASHSWTDNNPYYADSVKGRFIISRDNAGNRVYLQMHSLEPEDTAVYYCAATARRSFVGRQWYTEARQYDYWGQGTQVTVSS
B7: BCP-2 (BCP-K311) (Keytruda-9GS-A34311) (bispecific antibody, human IgG4 S228P, kappa)
heavy: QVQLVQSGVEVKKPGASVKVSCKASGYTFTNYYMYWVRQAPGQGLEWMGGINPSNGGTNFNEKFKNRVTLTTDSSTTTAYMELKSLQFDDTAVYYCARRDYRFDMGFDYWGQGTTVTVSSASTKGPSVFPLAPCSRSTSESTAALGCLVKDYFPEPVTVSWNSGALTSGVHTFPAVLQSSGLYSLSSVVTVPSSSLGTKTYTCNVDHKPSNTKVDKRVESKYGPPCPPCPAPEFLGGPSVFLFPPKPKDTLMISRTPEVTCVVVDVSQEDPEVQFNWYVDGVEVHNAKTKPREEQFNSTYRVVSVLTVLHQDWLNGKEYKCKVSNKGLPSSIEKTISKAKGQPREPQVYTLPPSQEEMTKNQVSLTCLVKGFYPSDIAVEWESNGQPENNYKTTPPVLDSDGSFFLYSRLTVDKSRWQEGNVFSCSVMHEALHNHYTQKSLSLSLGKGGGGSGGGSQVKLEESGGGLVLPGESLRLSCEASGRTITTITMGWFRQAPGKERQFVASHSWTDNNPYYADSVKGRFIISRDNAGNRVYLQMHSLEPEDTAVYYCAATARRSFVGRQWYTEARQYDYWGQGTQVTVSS
light: B1 light
B8: BCP-33 (Keytruda-Fab VH-CH1-hIgG1 hinge-A34311-IgG1 Fc) (bispecific antibody)
heavy: not shown
light: B1 light
B9: BCP-32 (A34311-9GS linker-A34311-9GS linker-Keytruda) (bispecific antibody, human IgG4 S228P, kappa)
heavy: not shown
light: B1 light
B10: BCP-36 (Keytruda-scFv-hIgG1 hinge-A34311-CH1-IgG1 Fc, A34311-CL as light chain fusion polypeptide) (bispecific antibody)
heavy: not shown
light: QVKLEESGGGLVLPGESLRLSCEASGRTITTITMGWFRQAPGKERQFVASHSWTDNNPYYADSVKGRFIISRDNAGNRVYLQMHSLEPEDTAVYYCAATARRSFVGRQWYTEARQYDYWGQGTQVTVSSRTVAAPSVFIFPPSDEQLKSGTASVVCLLNNFYPREAKVQWKVDNALQSGNSQESVTEQDSKDSTYSLSSTLTLSKADYEKHKVYACEVTHQGLSSPVTKSFNRGEC
B11: BCP-31 (A34311-9GS linker-Keytruda) (bispecific antibody, human IgG4 S228P, kappa)
heavy: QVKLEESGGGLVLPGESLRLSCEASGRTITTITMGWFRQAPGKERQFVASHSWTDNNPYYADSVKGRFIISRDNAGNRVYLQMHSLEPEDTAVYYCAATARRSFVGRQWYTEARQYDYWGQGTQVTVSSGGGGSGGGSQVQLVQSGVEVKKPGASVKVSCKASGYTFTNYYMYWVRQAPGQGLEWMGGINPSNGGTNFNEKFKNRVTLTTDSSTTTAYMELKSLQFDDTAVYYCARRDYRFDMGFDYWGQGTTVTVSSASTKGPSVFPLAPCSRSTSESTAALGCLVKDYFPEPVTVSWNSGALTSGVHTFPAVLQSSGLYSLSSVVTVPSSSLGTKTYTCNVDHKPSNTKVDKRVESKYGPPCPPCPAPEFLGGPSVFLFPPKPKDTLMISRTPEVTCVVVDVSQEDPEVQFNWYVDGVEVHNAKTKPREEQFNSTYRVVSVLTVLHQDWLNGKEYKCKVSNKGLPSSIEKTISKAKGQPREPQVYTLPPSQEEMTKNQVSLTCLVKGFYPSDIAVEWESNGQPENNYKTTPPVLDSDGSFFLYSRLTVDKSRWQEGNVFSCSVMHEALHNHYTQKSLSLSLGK
light: QVKLEESGGGLVLPGESLRLSCEASGRTITTITMGWFRQAPGKERQFVASHSWTDNNPYYADSVKGRFIISRDNAGNRVYLQMHSLEPEDTAVYYCAATARRSFVGRQWYTEARQYDYWGQGTQVTVSSGGGGSGGGSEIVLTQSPATLSLSPGERATLSCRASKGVSTSGYSYLHWYQQKPGQAPRLLIYLASYLESGVPARFSGSGSGTDFTLTISSLEPEDFAVYYCQHSRDLPLTFGGGTKVEIKRTVAAPSVFIFPPSDEQLKSGTASVVCLLNNFYPREAKVQWKVDNALQSGNSQESVTEQDSKDSTYSLSSTLTLSKADYEKHKVYACEVTHQGLSSPVTKSFNRGEC
B12: A34311 sdAb (VHH)
VHH: QVKLEESGGGLVLPGESLRLSCEASGRTITTITMGWFRQAPGKERQFVASHSWTDNNPYYADSVKGRFIISRDNAGNRVYLQMHSLEPEDTAVYYCAATARRSFVGRQWYTEARQYDYWGQGTQVTVSS
notes: also called A34311 (WT)
B13: BCP-311K (A34311-9GS-Keytruda) (bispecific antibody, human IgG4 S228P, kappa)
heavy: not shown
light: B1 light
B14: AS07014 HCAb (Fc fusion)
heavy: QVHLVESGGGSVQAGGSLRLSCAASGYTYSRHCLGWFRQTPGKEREAVATIDSDGSTSYADSVKGRFTISSDNAKNTLYLQMNSLKPEDTAMYYCAIGPNPRYCSGAPNTRGAEHYFGYWAQGTQVTVSS
notes: not shown: human IgG1 Fc
B15: AS07189 HCAb (Fc fusion)
heavy: QVQLVESGGGSVQAGGSLRLSCAASGDSPSVNYMGWFRRAPEKQREQREEVASIYPTGGTFYTDSVKGRFTISRDNAKNTLYLQMTALKPEDTAMYYCAAGKWGTDYWGQGTQVIVSS
notes: not shown: human IgG1 Fc

These binders were tested against T1, human PD-1 expressed on CHO cells (human, UniProt Q15116 25-288) (assay: FACS on CHO cells expressing human PD-1).
T1 construct: whole, on cells; Also used here for PD-1 on primary T cells (MLR) and on reporter Jurkat cells in the functional rows; also called CHO cells expressing human PD-1
T1 sequence (Q15116 25-288): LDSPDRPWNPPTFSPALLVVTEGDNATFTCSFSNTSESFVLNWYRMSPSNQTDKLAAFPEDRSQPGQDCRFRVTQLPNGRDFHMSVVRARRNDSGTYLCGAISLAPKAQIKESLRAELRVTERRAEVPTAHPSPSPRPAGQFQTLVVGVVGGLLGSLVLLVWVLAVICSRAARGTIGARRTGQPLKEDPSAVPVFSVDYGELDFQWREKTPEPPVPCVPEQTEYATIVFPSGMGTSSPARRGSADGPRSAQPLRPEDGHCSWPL
Protocol: (§1) CHO cells expressing human PD-1 were dissociated from adherent culture flasks and mixed with varying concentrations of antibodies (both in a 96-well plate). […] Human IgG was used as a negative binding control. The mixture was equilibrated for 30 minutes at room temperature, washed three times with FACS buffer (PBS containing 1% BSA). FITC-conjugated anti-human kappa antibody (Jackson ImmunoResearch) used as secondary antibody was then added and incubated for 15 minutes at room temperature. Cells were washed again with FACS buffer and analyzed by flow cytometry. Data were analyzed with Prism (GraphPad Software, San Diego, Calif.) using non-linear regression, and EC₅₀ values were calculated.

| binding result | Binder |
| --- | --- |
| binds | B1 |
| binds | B2 |
| binds | B3 |

What follows are binders tested against T2, CTLA-4-His protein (Homo sapiens (Human), UniProt P16410 37-161) (assay: SPR, antibody immobilised, CTLA-4-His as analyte).
T2 construct: also called CTLA-4-His fusion protein; not shown: His tag
T2 sequence (P16410 37-161 limits assumed): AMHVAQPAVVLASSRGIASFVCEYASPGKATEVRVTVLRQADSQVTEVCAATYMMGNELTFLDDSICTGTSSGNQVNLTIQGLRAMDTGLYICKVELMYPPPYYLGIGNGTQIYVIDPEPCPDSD

| binding result | Binder |
| --- | --- |
| binds | B1 |
| binds | B2 |
| binds | B3 |

The binders below were run against T3, human CTLA-4 expressed on CHO cells (human, UniProt P16410 37-223) (assay: FACS on CHO cells expressing human CTLA-4).
T3 construct: also called CHO cells expressing human CTLA-4; CTLA-4 expressing CHO cells
T3 sequence (P16410 37-223): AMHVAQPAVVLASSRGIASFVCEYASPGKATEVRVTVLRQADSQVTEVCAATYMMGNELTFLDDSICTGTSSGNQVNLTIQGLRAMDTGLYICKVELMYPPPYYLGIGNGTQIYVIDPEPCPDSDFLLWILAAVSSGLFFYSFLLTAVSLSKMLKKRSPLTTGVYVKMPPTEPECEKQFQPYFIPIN
Protocol: (§2) Binding of HCAbs to human CTLA-4 expressed on CHO cells was determined using a fluorescence-activated cell sorting (FACS)-based assay. CHO cells expressing human CTLA-4 were dissociated from adherent culture flasks and mixed with varying concentrations of antibodies (in a 96-well plate). […] The mixture was equilibrated for 30 minutes at room temperature, then washed three times with FACS buffer (PBS containing 1% BSA). Fluorescein isothiocyanate (FITC)-conjugated anti-human κ antibody (Jackson ImmunoResearch) was then added and incubated for 15 minutes at room temperature, serving as a secondary antibody. Cells were washed again with FACS buffer and analyzed by flow cytometry. Data were analyzed with Prism (GraphPad Software, San Diego, Calif.) using non-linear regression, and EC₅₀ values were calculated.
BABP samples were prepared (starting at 1 μM, 3-fold serial dilution with 10 concentrations) as primary antibody for FACS analysis.

| EC50 | Binder |
| --- | --- |
| 20.4 nM | B4 |
| 26.6 nM | B5 |
| 17.7 nM | B6 |
| 16.4 nM | B7 |
| 48 nM | B8 |
| 71.7 nM | B9 |
| 26.4 nM | B10 |
| 31.2 nM | B11 |

What follows are binders tested against T4, biotin-labeled hCTLA-4/Fc protein (human, UniProt P16410 37-161, biotin label in the FACS competition assays (sites not given)) (assay: FACS competition, biotin hCTLA-4/Fc on CHO cells expressing human B7-1).
T4 construct: also called CTLA-4 ECD (CTLA-4-Fc); CTLA-4-Fc (GenScript, Z03373-50)
T4 sequence (P16410 37-161): as the sequence (P16410 37-161 limits assumed) above

| EC50 | Binder |
| --- | --- |
| ~14.5 nM | B12 |

The binders below were run against T2, CTLA-4-His protein (assay: SPR, antibody immobilised on CM5, CTLA-4-His as analyte).

| binding result | Binder |
| --- | --- |
| binds | B13 |

Each binder was assayed against T1, human PD-1 expressed on CHO cells (assay: FACS competition, biotin hPD-L1-Fc on CHO cells expressing human PD-1).
Protocol: The mixture was equilibrated for 30 minutes at room temperature, and washed three times with FACS buffer (PBS containing 1% BSA). PE/Cy5 Streptavidin secondary antibody was then added to the mixtures and incubated for 15 minutes at room temperature. Subsequently, the cells were washed with FACS buffer and analyzed by flow cytometry.

| IC50 | Binder |
| --- | --- |
| 4.6 nM | B4 |
| 8.8 nM | B5 |
| 4 nM | B6 |
| 2.3 nM | B7 |
| 2 nM | B8 |
| 4.3 nM | B9 |
| 2 nM | B10 |
| 5.7 nM | B11 |

These binders were tested against T5, PD-1-His protein (UniProt Q15116 25-167, limits assumed) (assay: SPR, antibody captured by Fc, PD-1-His as analyte).
T5 construct: not shown: His tag
T5 sequence (Q15116 25-167 limits assumed): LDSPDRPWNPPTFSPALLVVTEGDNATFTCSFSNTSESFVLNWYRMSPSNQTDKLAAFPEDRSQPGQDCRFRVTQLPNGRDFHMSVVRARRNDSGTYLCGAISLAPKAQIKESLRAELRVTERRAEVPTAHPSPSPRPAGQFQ

| Kd | Binder |
| --- | --- |
| 7.3 nM | B4 |
| 3.9 nM | B5 |
| 3.9 nM | B6 |
| 5.3 nM | B7 |
| 8.1 nM | B8 |
| 7.5 nM | B9 |
| 8.3 nM | B10 |
| 8 nM | B11 |

Biological target: T3, human CTLA-4 expressed on CHO cells
Experiment: FACS on CHO cells expressing human CTLA-4
Remark: another data set of the same source
Protocol: as §2

| binding result | Binder |
| --- | --- |
| binds | B1 |
| binds | B2 |
| binds | B3 |

Biological target: T1, human PD-1 expressed on CHO cells
Experiment: FACS on CHO cells expressing human PD-1
Remark: another data set of the same source
Protocol: as §1
BABP samples were prepared (starting at 1 μM, 3-fold serial dilution with 10 concentrations) as primary antibodies for FACS analysis.

| EC50 | Binder |
| --- | --- |
| 3 nM | B4 |
| 12.2 nM | B5 |
| 2.7 nM | B6 |
| 5.2 nM | B7 |
| 1.5 nM | B8 |
| 8.1 nM | B9 |
| 1.8 nM | B10 |
| 3.4 nM | B11 |

The binders below were run against T2, CTLA-4-His protein (assay: SPR, antibody captured by Fc, CTLA-4-His as analyte).
Protocol: Different concentrations of the BABP samples were prepared starting at 200 nM with 3-fold serial dilution. Each BABP sample was immobilized on the sensor chip through the Fc capture method. Antigen CTLA-4-His was used as the analyte. The dissociation (kd) and association (kₐ) rate constants were obtained using the BIACORE® T200 evaluation software. The apparent equilibrium dissociation constants (KD) were calculated from the ratio of kd over kₐ.

| Kd | Binder |
| --- | --- |
| 7.2 nM | B4 |
| 4.8 nM | B5 |
| 39.3 nM | B6 |
| 11 nM | B7 |
| 9.2 nM | B8 |
| 4.1 nM | B9 |
| 6.1 nM | B10 |
| 4.3 nM | B11 |

The binders below were run against T2, CTLA-4-His protein (assay: SPR, CTLA-4-His immobilised, HCAb as analyte at 5-160 nM).
Protocol: Binding kinetics of anti-CTLA-4 HCAbs were determined using a Surface Plasmon Resonance (SPR) biosensor, Biacore T200 (GE Healthcare). Antigen CTLA-4-His fusion protein was immobilized on the sensor chip. […] The data of dissociation (kd) and association (kₐ) rate constants were obtained using Biacore T200 evaluation software. The apparent equilibrium dissociation constants (KD) were calculated from the ratio of kd/kₐ.

| binding result | Binder |
| --- | --- |
| binds | B14 |
| binds | B15 |

These binders were tested against T4, biotin-labeled hCTLA-4/Fc protein (assay: FACS competition, biotin hCTLA-4-Fc on CHO cells expressing human B7-1).
Protocol: The mixture was equilibrated for 30 minutes at room temperature, and washed three times with FACS buffer (PBS containing 1% BSA). PE/Cy5 Streptavidin secondary antibody was then added to the mixtures and incubated for 15 minutes at room temperature. Subsequently, the cells were washed again with FACS buffer and analyzed by flow cytometry.

| IC50 | Binder |
| --- | --- |
| 17.5 nM | B4 |
| 8.6 nM | B5 |
| 33.3 nM | B6 |
| 11.7 nM | B7 |
| 26.3 nM | B8 |
| 14.6 nM | B9 |
| 17.9 nM | B10 |
| 15.3 nM | B11 |
